Measured values as given in patent US20170335290A1 (published 2017).

T1: survivin peptide on HLA-A*02:01 (human)
T1 peptide: ELTLGEFLKL

T2: survivin ELT, alanine substitution at position 3 (residues not given, written out from the filing's … (human))
T2 peptide: ELALGEFLKL

T3: survivin ELT, alanine substitution at position 5 (residues not given, written out from the filing's … (human))
T3 peptide: ELTLAEFLKL

T4: CD3d (CD3 delta) peptide on HLA-A*02:01 (human)
T4 peptide: LALGVFCFA

T5: CD3d (CD3 delta) peptide on HLA-A*02:01 (human)
T5 peptide: LLALGVFCFA

T6: CD81 (CD81 antigen) peptide on HLA-A*02:01 (human)
T6 peptide: QCLLGTFFTC

T7: CSF3R (Granulocyte colony stimulating factor receptor) peptide on HLA-A*02:01 (human)
T7 peptide: HIILGLFGLL

T8: CRLS1 (cardiolipin synthase) peptide on HLA-A*02:01 (human)
T8 peptide: NIALGVFALA

T9: EPB42 (Erythrocyte membrane protein band 4.2) peptide on HLA-A*02:01 (human)
T9 peptide: QLLLGQFTLL

T10: INGR2 (Interferon gamma receptor 2) peptide on HLA-A*02:01 (human)
T10 peptide: LLLLGVFAAA

T11: survivin, heteroclitic variant 97M peptide on HLA-A*02:01 (human)
T11 peptide: LMLGEFLKL


Experiments:
[1] = target: T1, survivin peptide on HLA-A*02:01; test: killing
[2] = target: T2, survivin ELT, alanine substitution at …; test: cytokine release
[3] = target: T3, survivin ELT, alanine substitution at …; test: cytokine release
[4] = target: T4, CD3d (CD3 delta) peptide on HLA-A*02:01; test: cytokine release
[5] = target: T5, CD3d (CD3 delta) peptide on HLA-A*02:01; test: cytokine release
[6] = target: T6, CD81 (CD81 antigen) peptide on …; test: cytokine release
[7] = target: T7, CSF3R (Granulocyte colony stimulating …); test: cytokine release
[8] = target: T8, CRLS1 (cardiolipin synthase) peptide on …; test: cytokine release
[9] = target: T9, EPB42 (Erythrocyte membrane protein …); test: cytokine release
[10] = target: T10, INGR2 (Interferon gamma receptor 2) …; test: cytokine release
[11] = target: T11, survivin, heteroclitic variant 97M …; test: 4-hour 51Cr release, 50% lysis at E:T 10:1, LML-pulsed T2 cells; value given for a published TCR (Leisegang et al. 2010); T cell clone or line
[12] = target: T11, survivin, heteroclitic variant 97M …; test: 4-hour 51Cr release, 50% lysis at E:T 10:1, clone #24 against LML-pulsed T2 cells, peptide titration; T cell clone or line
[13] = target: T1, survivin peptide on HLA-A*02:01; test: 51Cr release, clone #24 against ELT-pulsed T2 cells, E:T 10:1, peptide titration (avidity as defined in Table 1); T cell clone or line

binding result [4] | binding result [5] | binding result [6] | binding result [7] | binding result [8] | binding result [9] | binding result [10] | Binder | binding result [1] | binding result [2] | binding result [3] | EC50 of peptide [11] [nM] | EC50 of peptide [12] [nM] | EC50 of peptide [13] [nM]
recognises | no recognition | recognises | no recognition | no recognition | no recognition | no recognition | A72-TCR (TCR) Valpha: AQKITQTQPGMFVQEKEAVTLDCTYDTSDQSYGLFWYKQPSSGEMIFLIYQGSYDEQNATEGRYSLNFQKARKSANLVISASQLGDSAMYFCAMREGGGYNKLIFGAGTRLAVHP beta TRBV30*02 TRBJ1-1*01 CDR3: CAGQDLNTEAFF | recognises | recognises | recognises | 0.05 | – | –
no recognition | no recognition | no recognition | no recognition | no recognition | no recognition | no recognition | s24-TCR (TCR, V domains shown) Valpha: GESVGLHLPTLSVQEGDNSIINCAYSNSASDYFIWYKQESGKGPQFIIDIRSNMDKRQGQRVTVLLNKTVKHLSLQIAATQPGDSAVYFCAETVTDSWGKLQFGAGTQVVVTP Vbeta: DAMVIQNPRYQVTQFGKPVTLSCSQTLNHNVMYWYQQKSSQAPKLLFHYYDKDFNNEADTPDNFQSRRPNTSFCFLDIRSPGLGDAAMYLCATSRGDSTAEPQHFGDGTRLSIL | – | – | – | – | 50 | 1000
– | – | – | – | – | – | – | A66 (TCR) alpha TRAV13-1*02 TRAJ39*01 CDR3: CAARAGNMLTF beta TRBV30*01 TRBJ2-7*01 CDR3: CAWGTGLALYEQYF | – | – | – | 50 | – | –
